The series has as its target T1, 6xHis-NELF-E-mOrange (Drosophila, UniProt P92204 1-280).
T1 sequence: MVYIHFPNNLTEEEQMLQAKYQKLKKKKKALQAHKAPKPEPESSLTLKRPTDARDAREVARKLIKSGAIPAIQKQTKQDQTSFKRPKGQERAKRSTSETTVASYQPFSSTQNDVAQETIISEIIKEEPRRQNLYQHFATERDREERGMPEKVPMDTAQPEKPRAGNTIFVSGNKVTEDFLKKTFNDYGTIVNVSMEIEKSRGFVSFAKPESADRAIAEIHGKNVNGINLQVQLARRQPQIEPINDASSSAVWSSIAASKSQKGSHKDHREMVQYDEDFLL
Put plainly: HiTS-RAP fluorescence.

B1: NELFapt A39U_U61A (structured_RNA)
RNA: GGGAAUGGAUCCACAUCUACGAAUUCCCAACGACUGCCGAGCGAGAUUACGCUUGAGCGCCCCUCUGAGGAUGCCCACGGGCGAUAGGGGCACGGCUUCACUGCAGACUUGACGAAGCUU
B1: the binding result is “binds”.
